Assays:
[1] = test system: 4% HBE mucus from CF donors; assay: rheology of 4% solids CF HBE mucus (G′, G″); assay type: biochemical, human; details: 1 hr at 37° C.
From the text: Mucus Preparation: Aseptic mucus was harvested from over 100 individual HBE cultures from 20 different CF donors and prepared to four weight-percent (4%) solids, a concentration that typifies chronic obstructive pulmonary disease (COPD) and mild CF (Hill, D. B. et al., 2014, A biophysical basis for mucus solids concentration as a candidate biomarker for airways disease, PloS one 9, e87681; Anderson, W. H. et al., 2015, The relationship of mucus concentration (hydration) to mucus osmotic pressure and transport in chronic bronchitis., Am J Resp Crit Care Med 192: 182-90). Rheology: HBE cell culture mucus was treated with DTT (1 mM) and several concentrations of ORP100S (0.01, 0.1, and 1.0 mM) for 1 hr at 37° C. following previously established methods (Hill, D. B., and Button, B., 2012, Establishment of respiratory air-liquid interface cultures and their use in studying mucin production, secretion, and function. In Mucins: Methods and Protocols, D. J. Thornton, ed., pp. 245-58; Youngren-Ortiz, S. et al., 2017, Development of optimized inhalable Gemcitabine-loaded gelatin nanocarriers for lung cancer, J Aerosol Med Pulm Drug Delivery 30:299-321; Seagrave, J., et al., 2012, Effects of guaifenesin, N-acetylcysteine, and ambroxol on MUC5AC and mucociliary transport in primary differentiated human tracheal-bronchial cells, Respir Res 13: 98). Concentration and time course assays were performed using a TA Instruments DHR3 rheometer to assess the bulk, macroscopic biophysical effects of test article and controls on HBE mucus properties. Briefly, the linear regime of a 1 Hz amplitude (stress) sweep was identified for each treatment condition. […] Creep recovery experiments were performed in which a known stress (between 0.05 and ˜100 Pa) was applied to treated or control mucus for 10 seconds, and the rheological recovery of the fluid was recorded for an additional 50 seconds. […] From the measured parameters the viscosity and elasticity of the fluid were determined as a function of applied stress. Frequency sweeps were performed at both constant stress and strains and used to determine the baseline physical properties of mucus and its elastic and viscous components (G′ and G″, respectively). Mucin molecular weight determination: Molecular weight reduction following test article treatment was determined using a combination of gel-permeation chromatography with multi-angle laser light scattering on a Wyatt Heleos MALLS system. MALLS is a rapid and accurate means of determining molecular size and mass of high MW biomolecules in a non-destructive manner without requiring the use of relative standards. Briefly, 4% HBE treated samples were diluted 100-fold in 0.9% NaCl with 10 mM EDTA and 0.01% sodium azide. 0.2 mL of diluted sample was eluted through a Sepharose CL2B column to separate high MW mucins from other mucus proteins, and the mucin fraction was introduced into the MALLS system. Mucin MW was determined by fitting a Berry model to light scattering from 11 different angles using Wyatt Astra software.
FIGS. 5, A and B (top): Reduction in Elastic (G′) and Viscous (G″) moduli of 4% solids dry weight mucus reduced with DTT (1 mM) and ORP100S (0.01, 0.1, and 1.0 mM concentrations) for 1 hr at 37° C. […] All data were collected by examining frequency sweeps of mucus performed in the linear regime and analyzed at 1 rad/s on a TA DHR3 rheometer.

[2] = test system: primary HBE cells from healthy non-CF donors; assay: μOCT of MCT rate and CBF in non-CF primary HBE cells; assay type: cell-based, human
From the text: Primary human bronchial epithelial (HBE) cells were derived from lung explants from healthy failed donors and CF patients homozygous for F508del CFTR. […]
One-micron resolution spectral domain μOCT was used to obtain measurements of mucociliary transport (MCT) rate and ciliary beat frequency (CBF) in HBE monolayers and of MCT rate of sputum ex vivo. This first-in-kind, high-speed (40 frames per second, 512 lines per frame) microscopic reflectance imaging modality enables simultaneous anatomic imaging in cell cultures and intact tissues that readily distinguishes the properties of CF compared to normal epithelia (Liu L, Chu K K, Houser G H, Diephuis B J, Li Y, Wilsterman E J, Shastry S, Dierksen G, Birket S E, Mazur M, et al., 2013, Method for quantitative study of airway functional microanatomy using micro-optical coherence tomography, PLoS One 8(1):e54473; Tuggle K L, Birket S E, Cui X, Hong J, Warren J, Reid L, Chambers A, Ji D, Gamber K, Chu K K, et al., 2014, Characterization of defects in ion transport and tissue development in Cystic Fibrosis Transmembrane Conductance Regulator (CFTR)-knockout rats. […] Images were captured, and MCT rate and CBF calculated, as described in the preceding references.

B1: ORP100S: thioredoxin with monothiol active site, Cys35 and non-active Cys 62, 69 and 73 substituted with serine (SEQ ID NO:29) (protein)
chain: MVKQIESKTAFQEALDAAGDKLVVVDFSATWCGPSKMIKPFFHSLSEKYSNVIFLEVDVDDSQDVASESEVKSMPTFQFFKKGQKVGEFSGANKEKLEATINELV
modifications: synthetic peptide motif
Question: With B1 as the molecule, how does the “reduction in elastic modulus G′” value ([1]; 10 μM) read?
Answer: significant reduction in G′ was not apparent

Question: And the “reduction in viscous modulus G″” value ([1]; 10 μM)?
Answer: ~2 fold

Question: And the “reduction in viscous modulus G″” value ([1]; 100 μM)?
Answer: reduced by a similar amount as observed with 10 μM

Question: What about the “elastic modulus G′” value ([1]; 100 μM, baseline value 0.28 Pa) of the same molecule?
Answer: 0.19 Pa

Question: What about the “reduction in G′, factor” value ([1]; 1 mM) of the same molecule?
Answer: ~3

Question: What about the “reduction in G″, factor” value ([1]; 1 mM) of the same molecule?
Answer: ~3

Question: What about the CBF ([2]; 3 hrs post treatment) of the same molecule?
Answer: no meaningful differences

Question: What about the MCT rate ([2]; 3 hrs post-treatment, ORP100S 1-3 mM, DTT 1.6 mM, PBS 0.05±0.007, mean±SE) of the same molecule?
Answer: 2.18±0.3 mm/min

Reference: patent US20230071765A1, “COMPOSITIONS HAVING THIOREDOXIN ACTIVITY AND RELATED METHODS” (ORPRO THERAPEUTICS, INC., priority 2020, published 2023)
